Positions count from the first letter of the chain named. Where no end group is shown, it is not given here.
Columns and labels:
CRF-R1 = biological target: T1, CRF-R1 (Rattus norvegicus, UniProt P35353); experiment: cAMP accumulation in primary rat anterior pituitary cells expressing endogenous CRF-R1; format: cell-based; settings: FIG. 3B; Ucn III even at concentrations >1 μM
T1 construct: cells expressing endogenous CRF-R1 (cultured primary anterior pituitary cells, (5)) or CRF-R2β (A7r5 cells, (27)); endogenous in cells; host or cells: primary rat anterior pituitary cells in culture
T1 sequence (P35353 24-415): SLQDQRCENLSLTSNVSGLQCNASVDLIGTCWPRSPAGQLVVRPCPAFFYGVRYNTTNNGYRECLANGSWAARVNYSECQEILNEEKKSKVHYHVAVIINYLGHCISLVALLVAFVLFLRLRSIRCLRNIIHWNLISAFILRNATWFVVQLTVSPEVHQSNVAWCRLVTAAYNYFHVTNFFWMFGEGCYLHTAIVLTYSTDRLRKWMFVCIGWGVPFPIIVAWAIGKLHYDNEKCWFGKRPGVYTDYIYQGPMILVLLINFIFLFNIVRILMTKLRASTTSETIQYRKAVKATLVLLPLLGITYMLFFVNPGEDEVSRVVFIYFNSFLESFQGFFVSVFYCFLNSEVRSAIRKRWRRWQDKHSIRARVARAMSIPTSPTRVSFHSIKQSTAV
Method: The abilities of Ucn II and Ucn III to activate adenylate cyclase in cells expressing endogenous CRF-R1 (cultured primary anterior pituitary cells, (5)) or CRF-R2β (A7r5 cells, (27)). Rat aortic smooth muscle cells, A7r5, were plated into 48-well culture dishes and allowed to recover for 48 h. Cells were starved in DMEM/0.2% FBS overnight before the experiment. The cells were preincubated with 0.1 mM 3-isobutyl-1-methylxanthine for 30 min and then exposed to peptides for 20 min at 37° C. Rat anterior pituitary cells were established in culture (28) and treated with test peptides for 45 min at 37° C. Intracellular cAMP was extracted from all cells and measured from triplicate wells using a radioimmunoassay kit (Biomedical Technologies). Potencies were determined using the PRISM […].

[1] = biological target: T2, CRF binding protein (CRF-BP) (Homo sapiens, UniProt P24387); experiment: Binding to CRF binding protein by displacement of [D-125I-Tyr0]-hCRF; settings: data not shown
T2 sequence (P24387 25-322): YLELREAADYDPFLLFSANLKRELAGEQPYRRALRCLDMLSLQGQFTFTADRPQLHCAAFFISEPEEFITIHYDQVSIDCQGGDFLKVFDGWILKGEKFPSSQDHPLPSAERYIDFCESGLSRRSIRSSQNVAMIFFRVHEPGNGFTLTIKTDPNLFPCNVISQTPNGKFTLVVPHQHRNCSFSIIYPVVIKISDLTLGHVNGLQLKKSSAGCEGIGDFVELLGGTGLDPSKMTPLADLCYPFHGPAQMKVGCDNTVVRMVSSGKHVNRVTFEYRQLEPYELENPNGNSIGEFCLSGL

hCRF-R1 = biological target: T3, hCRF-R1 (Homo sapiens, UniProt P34998); experiment: cAMP accumulation in CHO cells stably expressing hCRF-R1; format: cell-based; settings: 1 μM
T3 construct: expressed in transfected cells
T3 sequence (P34998 24-415): T1 sequence (P35353 24-415) with R6H, N9S, T13A, V16I, V153M, A163G, V209I, H229Y, R356H
Method: The medium was changed at least 2 h before treatments to DMEM/0.1% FBS. The cells were preincubated with 0.1 mM 3-isobutyl-1-methylxanthine for 30 min and then exposed to peptides for 20 min at 37° C.

rats = experiment: Intravenous Ucn III in rats: glucagon secretion and blood sugar; format: in vivo, rat; settings: given intravenously to rats
Description: It has been shown by others that glucagon can act directly on the beta cell to stimulate insulin secretion in a paracrine manner. Thus, Ucn III may provide a means for the beta cell to signal the alpha cell, which produces glucagon which would then, in turn, drive the beta cell. Thus, Ucn III (or any CRF-R2 agonist) may be used to stimulate and sustain islet functions.

Ability to increase cyclic AMP in cultured pituitary cells expressing CRF-R1 (CRF-R1) | Activation of CRF-R1 (cAMP) at very high doses (hCRF-R1) | Substance | Affinity for CRF-BP [1] | Glucagon secretion (rats) | Blood sugar levels (rats; subsequent to glucagon rise)
inactive | no activation | urocortin III (FTLSLDVPTNIMNLLFNIAKAKNLRAQAAANAHLMAQI; ends and bridges not checked; UniProt Q969E3 120-157, looked up) [Ucn III, urocortin III, species (human or mouse) not specified at the place] | neither Ucn II nor Ucn III exhibit appreciable affinity | rapidly stimulated glucagon secretion | elevates blood sugar levels
– | – | urocortin [Urocortin (rat)] | subnanomolar | – | –
low potency | – | urocortin II (IVLSLDVPIGLLQILLEQARARAAREQATTNARILARVGHC; ends and bridges not checked; UniProt Q96RP3 72-112, looked up) [Ucn II, urocortin II, species (human or mouse) not specified at the place, reference compound] | neither Ucn II nor Ucn III exhibit appreciable affinity | – | –
